We go through one molecule from patent publication US20220002669A1 (JUNO THERAPEUTICS, published 2022).

In assay [1] the target is T1, STREP-TACTIN M2 covalently coupled to Sephadex G50 stationary phase (Streptomyces avidinii, UniProt P22629 38-163, covalently coupled to cyanogen bromide (CNBr) activated Sephadex G50 resin).
T1 construct: Here it is immobilised on the chromatography matrix; also called immobilized Strep-Tactin reagent; selection reagent
As to the kind of experiment: loading of tagged Fab onto Strep-Tactin Sephadex G50 resin.
Procedure: A 50% suspension of Sephadex G50 contained approximately 70 μg of covalently coupled 7 Strep-Tactin®/mL of the bead suspension. […] The suspension was then filled in a plastic minicolumn with a 90 micrometer frit at the bottom. The column was equilibrated with PBS (phosphate buffered saline) containing 0.5% bovine serum albumin (PBSA buffer) to give a bed volume of 1 mL.

Assay [2] concerns the target T2, CD4 on the surface of T cells from a human donor apheresis sample (human, UniProt P01730 26-458).
T2 construct: whole, on cells; also called selection marker
As to the kind of experiment: column affinity selection of T cells from a human apheresis sample.
Procedure: The column was equilibrated with PBS (phosphate buffered saline) containing 0.5% bovine serum albumin (PBSA buffer) to give a bed volume of 1 mL.
As a control, an apheresis sample was loaded onto the anti-CD3 affinity column but without incubation in the presence of the anti-CD3/anti-CD28 oligomeric stimulatory reagent.

B1: anti-CD4 binding Fab fragment obtained from m13B8.2, heavy chain carboxy-terminally fused with a Twin Strep-Tag (Fab, V domains shown)
VH: QVQLKQSGPGLVQPSQSLSITCTVSGFSLTTFGVHWVRQSPGKGLEWLGVIWASGITDYNVPFMSRLSITKDNSKSQVFFKLNSLQPDDTAIYYCAKNDPGTGFAYWGQGTLVTVSA
VL: DIQMTQSPASLSASVGETVTFTCRASEMIYSYLAWYQQKQGKSPQLLVHDAKTLAEGVPSRFSGGGSGTQFSLKINTLQPEDFGTYYCQAHYGNPPTFGGGTKLEIKR
notes: also called anti-CD4 Fab
For the molecule B1, the binding result in assay [1] and in assay [2] was “binds” throughout.
